{"source": "FireProtDB (doi:10.1021/bi9912950)", "details": "Bos taurus, 25 °C, CD, Ammonium acetate 0.1 M, reversible: yes, whole UniProt chain shown", "note": "Several values for one entry are separate records, joined by “and”; a condition that tells them apart may be missing. Equal values may be shown once."}
{"protein": "Oxytocin-neurophysin 1 wild type, P01175 (protein) MAGSSLACCLLGLLALTSACYIQNCPLGGKRAVLDLDVRTCLPCGPGGKGRCFGPSICCGDELGCFVGTAEALRCQEENYLPSPCQSGQKPCGSGGRCAAAGICCSPDGCHEDPACDPEAAFSQH", "values": [{"measurement": "denaturant m value", "setting": "pH 6, GdnHCl", "result": "1.6 kcal/mol/M and 1.1 kcal/mol/M"}, {"measurement": "unfolding free energy", "setting": "pH 6, GdnHCl", "result": "6.8 kcal/mol and 3.1 kcal/mol"}, {"measurement": "denaturant m value", "setting": "pH 8, GdnHCl", "result": "1.5 kcal/mol/M and 1.1 kcal/mol/M"}, {"measurement": "unfolding free energy", "setting": "pH 8, GdnHCl", "result": "4.9 kcal/mol and 3 kcal/mol"}, {"measurement": "denaturant m value", "setting": "pH 8, Urea", "result": "0.7 kcal/mol/M and 0.4 kcal/mol/M"}, {"measurement": "unfolding free energy", "setting": "pH 8, Urea", "result": "4.4 kcal/mol and 2.4 kcal/mol"}, {"measurement": "denaturant m value", "setting": "pH 10, GdnHCl", "result": "0.9 kcal/mol/M and 1 kcal/mol/M"}, {"measurement": "unfolding free energy", "setting": "pH 10, GdnHCl", "result": "2.7 kcal/mol and 2.6 kcal/mol"}]}
